Data published in the supplement of paper PMC10126150.
± gives the standard deviation of the averaged measurements.

test system: ATP; assay: switch fluorescence ratio, 500 uM ATP over buffer (Cy3 cluster intensity, sum of 5 cycles each) (fold (ratio)); higher = stronger signal-on switching upon ATP binding; sequences stand for … in TCGTCGGCAGCGTCAGATGTGTATAAGAGACAGTTTTTTTTTTTTTTTTTTTTTTTTT…TC; details: aptamer strand: ATP DNA aptamer (quencher-CACCTGGGGGAGTATTGCGGAGGAAGG + anchor), 100 nM annealed; ATP concentration: 500 uM
In short: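 The fluorescence ratio divides summed target-cycle Cy3 intensity by summed buffer-cycle Cy3 intensity for each cluster and is averaged per switch-domain sequence. Cy3-labelled switching-strand clusters on a modified Illumina MiSeq flow-cell were annealed to 100 nM quencher-labelled ATP aptamer, then imaged in selection buffer and again after 15 min with 500 uM ATP at 22 °C. Five such cycles were run, with NaOH stripping and re-annealing between them, and clusters outside 100-1000 RFU were excluded.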
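Also: ATP exposure 15 min at 22 °C before imaging.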

Point of comparison: CTGGGTTTTT, switch fluorescence ratio 0.992 ± 0.03. Against it:
- CAGGAAGGGA — within error, 0.9958 ± 0.0064
- TCAGGTGGGT — within error, 1.22 ± 0.22
- CTTGTATTGG — within error, 1.03 ± 0.072
- CGGTACGGAT — within error, 0.989 ± 0.043
- AGTAAGATAA — within error, 0.986 ± 0.058
- TAGATAGAGG — within error, 0.961 ± 0.016
- CAAGTAGGGA — within error, 1.01 ± 0.057
- GCGTATACGC — within error, 1.04 ± 0.041
- CTAAATCGGT — within error, 0.987 ± 0.061
- ATACTAGGGG — within error, 1.01 ± 0.02
- CGTTGGTGGT — within error, 0.99 ± 0.031
- AGGGGCACGG — within error, 1.02 ± 0.0093
- TTATGTGACG — within error, 0.994 ± 0.082
- GTGCCTAGTG — within error, 1.017 ± 0.01
- AACGGCTCTC — within error, 0.988 ± 0.043
- AGTGTTATTG — within error, 0.976 ± 0.028
- GGGAGGGACT — within error, 1.03 ± 0.051
- GTTACGAAAA — within error, 1 ± 0.056
- TTTTTTAGCG — within error, 0.99 ± 0.029
- ATTTGGAGG — within error, 0.986 ± 0.013
- AGAGCGGA — within error, 0.981 ± 0.011
- AGTCAAAGGA — within error, 1.012 ± 0.0051
- GATGTGGGTT — within error, 1.03 ± 0.032
- TTGGTAGTGC — within error, 0.973 ± 0.015
- GGGGAAGGTG — within error, 1.79 ± 1
- CATGGTTCGT — within error, 0.975 ± 0.025
- TTTCGCATTT — higher, 1.14 ± 0.013
- TAAGAGGGTG — higher, 1.11 ± 0.016
- TAGTTAGACG — within error, 1.11 ± 0.1
- TGTGCGGGTT — within error, 1.02 ± 0.02
- TTAGTAAGGA — within error, 1.009 ± 0.0086
- GTGAACATAT — higher, 1.036 ± 0.0022
- TCGTAGGGGT — within error, 0.995 ± 0.018
- TTGCGGGGTG — within error, 1.01 ± 0.045
- GGACGGCCGC — higher, 1.06 ± 0.037
- CATAAATCAA — the same, 0.9925 ± 0.006
- TGGGACTGTA — higher, 1.14 ± 0.073
- GTGTTCGGCG — within error, 1.07 ± 0.066
- CTAAATTAGT — within error, 0.995 ± 0.042
- TTGAGGGGA — within error, 0.982 ± 0.021
- TTTGAACGTT — within error, 1 ± 0.037
- AATTTCGGAT — within error, 0.9595 ± 0.0035
- GAACGTGGAG — within error, 0.999 ± 0.02
- TTTAAAAAAC — within error, 1 ± 0.026
- GGTTGGGGAG — within error, 0.985 ± 0.019
- AAGTTCCGGA — higher, 1.034 ± 0.0072
- TCGATTGGTG — within error, 1.01 ± 0.013
- GTTTAAATAG — higher, 1.04 ± 0.011
- AATGAGGGAA — within error, 0.9986 ± 0.0011
- AAGGATCGTT — within error, 1 ± 0.018
- CGATGTAGTT — within error, 0.995 ± 0.014
- AGGGATGGGT — within error, 0.976 ± 0.0026
- CGGGGTTGAA — within error, 0.998 ± 0.03
- ACTTAATGTA — within error, 1 ± 0.03
- TTCGGTTATG — within error, 1.01 ± 0.033
- TTTCATCCTG — higher, 1.0331 ± 0.00038
- AGTGGGGGAG — within error, 1.002 ± 0.0087
- CTAAAAGTGT — within error, 0.989 ± 0.034
- TGAGGGGTGA — within error, 1.01 ± 0.029
- GGGGGTGGTA — within error, 0.99 ± 0.045
- GGGGGATTTA — the same, 0.992 ± 0.022
- GTGGTGCGGA — within error, 0.943 ± 0.052
- TTATAGCACC — higher, 1.06 ± 0.021
- GCTGGTGCAC — within error, 1.01 ± 0.026
- TGTTGTTTGG — within error, 1 ± 0.063
- GGCATTAAAG — within error, 0.9841 ± 0.0078
- GAAAAAGGAA — within error, 1.024 ± 0.0041
- CCAGAGGCTA — higher, 1.1475 ± 0.00019
- GTTAGGGGGG — within error, 0.979 ± 0.036
- AGGTTGAGAT — within error, 1.04 ± 0.041
- TTCCCTAATG — within error, 1 ± 0.033
- CCGGGGTTGG — within error, 1 ± 0.012
- CTGGTGTTCT — within error, 1.01 ± 0.017
- TTAGGATAAT — higher, 1.031 ± 0.0072
- CAGGGTGAGT — within error, 1.01 ± 0.022
- ATTAATCTT — within error, 1.011 ± 0.0016
- ATCATTTGTC — within error, 1.022 ± 0.0092
- ATATGGAATT — within error, 0.977 ± 0.0046
- TATGTATCTA — within error, 1.02 ± 0.043
- TCTCGTGAGA — within error, 0.997 ± 0.053
- GGGCTCATCA — within error, 0.998 ± 0.041
- CGTGATGATT — within error, 0.9809 ± 0.0078
- TTTAGGTGTG — within error, 1.02 ± 0.039
- TCTATCAGGG — within error, 0.995 ± 0.011
- TAGGTCCCGG — within error, 0.996 ± 0.032
- AATTTTTCCG — within error, 1.05 ± 0.036
- ACAGTATGGC — within error, 0.952 ± 0.041
- TATTTTCTTT — within error, 0.982 ± 0.021
- ATAAAGGCGA — within error, 0.975 ± 0.043
- TCCGTCGGGG — within error, 1.01 ± 0.033
- GTGGGTATGT — within error, 0.983 ± 0.017
- CTAGTCTAAT — within error, 1.01 ± 0.039
- AGGGGTAGGG — within error, 1.01 ± 0.027
- GATTTAGGAC — within error, 0.967 ± 0.044
- ATTTTATTAG — within error, 1.01 ± 0.021
- ATTCGAGCTG — within error, 1.002 ± 0.0034
- AAATGTCTTG — within error, 0.955 ± 0.043
- CCATTGAGAC — within error, 1.04 ± 0.029
- GTAGTGGGGG — within error, 0.975 ± 0.027
